Assay results as given in patent US20260266838A1 (NORDIC BIOSCIENCE A S, published 2026).
Ends that are not written are not given here.

Biological target: T1, monoclonal antibody (mAb) specific for the N-terminus amino acid sequence …, HRP-labeled, employed in the … (horseradish peroxidase (HRP) label, site not stated)
T1 construct: Mouse IgG2b / kappa from a hybridoma; also called HRP-labeled mAb; selected mAb
Assay: competitive ELISA: selection peptide against coated …-K-biotin for the HRP-labeled mAb; 10 independent runs
Protocol: All incubation steps were performed in the dark with constant shaking at 300 rpm and followed by five times wash of the wells using washing buffer ([…], 50 mM NaCl, pH 7.2). A 10-point calibration curve was plotted using a 4-parameter logistic curve fit of the selection peptide dilutions. Data were analyzed using the SoftMax Pro version 7.1.0 software (Molecular Devices).
Antibody specificity was evaluated using synthetic peptides and calculated as percentage of signal inhibition of two-fold diluted selection and deselection peptides (Table 1). Unspecific binding was tested using a nonsense screening peptide (biotin-[…] (SEQ ID NO: 23)). IC50 (half-maximal inhibition concentration) was determined from 10 independent runs of the 10-point calibration curve. The technical lower limit of detection (LLOD) was calculated as the mean signal of 60 determinations of a blank sample (i.e., assay buffer) plus 3× standard deviation (SD). The upper limit of quantification (ULOQ) was determined from 10 independent runs of the calibration curve and determined as the highest concentration of selection peptide determined with a recovery percentage within 100±20% of the nominal concentration and a CV<20%. […] Two-fold dilutions of four human serum samples quantified in three independent runs were used to evaluate assay linearity, calculated as percentage of recovery of the undiluted sample. […]

T1 sequence (VH, as listed by the source, chain 1 of 2): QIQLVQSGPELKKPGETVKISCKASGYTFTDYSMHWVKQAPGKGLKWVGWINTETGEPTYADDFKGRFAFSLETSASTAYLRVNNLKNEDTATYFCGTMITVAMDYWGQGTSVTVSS
T1 sequence (VL, as listed by the source, chain 2 of 2): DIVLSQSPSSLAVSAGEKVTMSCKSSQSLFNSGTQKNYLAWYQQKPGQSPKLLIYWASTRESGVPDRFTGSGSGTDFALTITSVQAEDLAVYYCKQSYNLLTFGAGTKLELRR

- IC50: 0.0369 µg/mL
B1: Selection peptide VDTLPQKPRE (peptide)
peptide: VDTLPQKPRE
modifications: not fully specified
notes: Synthetic peptide (Genscript); the end 75 follows from the ten residues; also called calibrator peptide
